# Article PMC5715124
# Molecular target: mCherry-LacR-CSB-ATPase
# Assay: immunofluorescence co-localisation at the lac operator array (mCherry-LacR tethering) in U2OS-265 cells
# Conditions: 250 Myc-expressing cells scored per experiment; three independent experiments; parent: est. 28; read off a plot
row,response,Substance
1,17 % of cells,Myc-CSB-N S10A; S158A
2,28 % of cells,Myc-CSB-N S158D
3,18 % of cells,Myc-CSB-N S158A
4,30 % of cells,Myc-CSB-N S10D; S158D
5,21 % of cells,Myc-CSB-N S10A
6,32 % of cells,Myc-CSB-N S10D
